Test results reported in patent publication US20240279318A1 (NANJING LEGEND BIOTECH, published 2024).
Where a chain is given by its changes, count along the chain named.

B1: AS170036 VL1VH1-56N98F108A (scFv)
scFv: QSALTQPRSVSGSPGQSVTISCAGTSSDVGSENYVSWYQQHPGKAPKLMIYQVNKRASGVPDRFSGSKSGNTASLTISGLQAEDEADYYCASYRSSDFNIVFGGGTKLTVLGGGGSGGGGSGGGGSEVQLVESGGGLVQPGGSLRLSCAASGFTFSSYAMSWVRQAPGKGLEWVSTINSGTNSPYYADSVKGRFTISRDNSKNTLYLQMNSLRAEDTAVYYCAKNFFDGSWFLAPPAMDYWGQGTLVTVSSHHHHHH
notes: also called 49-AS170036 VL1VH1-56N98F108A
B2: AS170036 VL1VH1-56Y98I108A (scFv)
scFv: B1 scFv with F98I, N182Y
notes: also called 43-AS170036 VL1VH1-56Y98I108A
B3: AS170036 VL1VH1-56Y98I108S (scFv)
scFv: B1 scFv with F98I, N182Y, A234S
notes: also called 45-AS170036 VL1VH1-56Y98I108S
B4: AS170036 VL1VH1-56N98F108D (scFv)
scFv: B1 scFv with A234D
notes: also called 50-AS170036 VL1VH1-56N98F108D
B5: AS170036 VL1VH1-56N98Q108S (scFv)
scFv: B1 scFv with F98Q, A234S
notes: also called 57-AS170036 VL1VH1-56N98Q108S
B6: AS170036 VL1VH1-56Y98F108D (scFv)
scFv: B1 scFv with N182Y, A234D
notes: also called 41-AS170036 VL1VH1-56Y98F108D
B7: AS170036 VL1VH1-57H98F108D (scFv)
scFv: B1 scFv with N182G, S183H, A234D
notes: also called 59-AS170036 VL1VH1-57H98F108D
B8: AS170036 VL1VH1-56Y98Q108D (scFv)
scFv: B1 scFv with F98Q, N182Y, A234D
notes: also called 47-AS170036 VL1VH1-56Y98Q108D
B9: AS170036 VL1VH1-57K98I108S (scFv)
scFv: B1 scFv with F98I, N182G, S183K, A234S
notes: also called 72-AS170036 VL1VH1-57K98I108S
B10: AS170036 VL1VH1-56Y98F108A (scFv)
scFv: B1 scFv with N182Y
notes: also called 40-AS170036 VL1VH1-56Y98F108A
B11: AS170036 VL1VH1-57K98F108A (scFv)
scFv: B1 scFv with N182G, S183K
notes: also called 67-AS170036 VL1VH1-57K98F108A
B12: AS170036 VL1VH1-57M98F108A (scFv)
scFv: B1 scFv with N182G, S183M
notes: also called 76-AS170036 VL1VH1-57M98F108A
B13: HS57Y (scFv)
scFv: B1 scFv with F98H, N182G, S183Y, A234G
notes: AS170036 VL1VH1 scFv mutein
B14: HS57W (scFv)
scFv: B1 scFv with F98H, N182G, S183W, A234G
notes: AS170036 VL1VH1 scFv mutein
B15: AS170036 VL1VH1-57K98Q108A (scFv)
scFv: B1 scFv with F98Q, N182G, S183K
notes: also called 73-AS170036 VL1VH1-57K98Q108A
B16: AS170036 VL1VH1-56Y98Q108A (scFv)
scFv: B1 scFv with F98Q, N182Y
notes: also called 46-AS170036 VL1VH1-56Y98Q108A
B17: AS170036 VL1VH1-57H98Q108D (scFv)
scFv: B1 scFv with F98Q, N182G, S183H, A234D
notes: also called 65-AS170036 VL1VH1-57H98Q108D
B18: AS170036 VL1VH1-57K98I108A (scFv)
scFv: B1 scFv with F98I, N182G, S183K
notes: also called 70-AS170036 VL1VH1-57K98I108A
B19: AS170036 VL1VH1-56N98I108S (scFv)
scFv: B1 scFv with F98I, A234S
notes: also called 54-AS170036 VL1VH1-56N98I108S
B20: AS170036 VL1VH1-56N98F108S (scFv)
scFv: B1 scFv with A234S
notes: also called 51-AS170036 VL1VH1-56N98F108S
B21: AS170036 VL1VH1-56N98Q108A (scFv)
scFv: B1 scFv with F98Q
notes: also called 55-AS170036 VL1VH1-56N98Q108A
B22: AS170036 VL1VH1-57K98F108S (scFv)
scFv: B1 scFv with N182G, S183K, A234S
notes: also called 69-AS170036 VL1VH1-57K98F108S
B23: AS170036 VL1VH1-57H98F108A (scFv)
scFv: B1 scFv with N182G, S183H
notes: also called 58-AS170036 VL1VH1-57H98F108A
B24: AS170036 VL1VH1-57K98Q108S (scFv)
scFv: B1 scFv with F98Q, N182G, S183K, A234S
notes: also called 75-AS170036 VL1VH1-57K98Q108S
B25: AS170036 VL1VH1-57H98F108S (scFv)
scFv: B1 scFv with N182G, S183H, A234S
notes: also called 60-AS170036 VL1VH1-57H98F108S
B26: AS170036 VL1VH1-57H98I108D (scFv)
scFv: B1 scFv with F98I, N182G, S183H, A234D
notes: also called 62-AS170036 VL1VH1-57H98I108D
B27: AS170036 VL1VH1-57K98F108D (scFv)
scFv: B1 scFv with N182G, S183K, A234D
notes: also called 68-AS170036 VL1VH1-57K98F108D
B28: AS170036 VL1VH1-57H98Q108A (scFv)
scFv: B1 scFv with F98Q, N182G, S183H
notes: also called 64-AS170036 VL1VH1-57H98Q108A
B29: AS170036 VL1VH1-56Y98F108S (scFv)
scFv: B1 scFv with N182Y, A234S
notes: also called 42-AS170036 VL1VH1-56Y98F108S
B30: AS170036 VL1VH1-57H98Q108S (scFv)
scFv: B1 scFv with F98Q, N182G, S183H, A234S
notes: also called 66-AS170036 VL1VH1-57H98Q108S
B31: AS170036 VL1VH1-57K98I108D (scFv)
scFv: B1 scFv with F98I, N182G, S183K, A234D
notes: also called 71-AS170036 VL1VH1-57K98I108D
B32: AS170036 VL1VH1-56N98Q108D (scFv)
scFv: B1 scFv with F98Q, A234D
notes: also called 56-AS170036 VL1VH1-56N98Q108D
B33: AS170036 VL1VH1-56Y98I108D (scFv)
scFv: B1 scFv with F98I, N182Y, A234D
notes: also called 44-AS170036 VL1VH1-56Y98I108D
B34: AS170036 VL1VH1-56Y98Q108S (scFv)
scFv: B1 scFv with F98Q, N182Y, A234S
notes: also called 48-AS170036 VL1VH1-56Y98Q108S
B35: AS170036 VL1VH1-57K98Q108D (scFv)
scFv: B1 scFv with F98Q, N182G, S183K, A234D
notes: also called 74-AS170036 VL1VH1-57K98Q108D
B36: AS170036 VL1VH1-56N98I108D (scFv)
scFv: B1 scFv with F98I, A234D
notes: also called 53-AS170036 VL1VH1-56N98I108D
B37: AS170036 VL1VH1-56N98I108A (scFv)
scFv: B1 scFv with F98I
notes: also called 52-AS170036 VL1VH1-56N98I108A
B38: AS170036 VL1VH1-57H98I108A (scFv)
scFv: B1 scFv with F98I, N182G, S183H
notes: also called 61-AS170036 VL1VH1-57H98I108A
B39: HS57T (scFv)
scFv: B1 scFv with F98H, N182G, S183T, A234G
notes: AS170036 VL1VH1 scFv mutein
B40: AS170036 VL1VH1-57H98I108S (scFv)
scFv: B1 scFv with F98I, N182G, S183H, A234S
notes: also called 63-AS170036 VL1VH1-57H98I108S

Assays:
[1] = target: T1, AFP158/HLA-A*02:01 complex (human); assay: SPR, crude scFv captured, pMHC analyte;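 also: complex injected at several concentrations over the chip, association phase then running buffer for dissociation, KD derived from on- and off-rates computed from both curves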
T1 construct: flowed as analyte in SPR

[2] = target: T1, AFP158/HLA-A*02:01 complex; assay: SPR, fold vs AS170036 VL1VH1;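 also: crude scFv muteins immobilised on a sensor chip, peptide–MHC complex passed over at several concentrations, binding then buffer-driven dissociation, KD estimated from on- and off-rates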
Description: (§1) The experiment was carried out as follows. The crude scFv protein were captured onto the sensorchip. Different concentrations (320, 160, 40 nM) of AFP158/HLA-A*02:01 complex flowed over the sensorchip surface, and were allowed to bind the antibody fragment for 100 s followed by injection of the running buffer to allow dissociation of the complex. On-rate (kd) and off-rate (kd) were calculated based on association and dissociation curve, and were used to estimate the equilibrium dissociation constant (KD).
The crude scFv muteins were then subjected to SPR affinity measurement by the method mentioned above.

[3] = target: T2, AFP158/HLA-A*02:01 complex (human); assay: SPR, KD ratio to AS170036 VL1VH1;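 also: crude scFv captured on a sensor chip, peptide–HLA complex passed over at several concentrations, association then buffer dissociation, KD derived from on- and off-rates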
T2 construct: flowed over the chip in SPR; also called AFP158 pro

[4] = target: T2, AFP158/HLA-A*02:01 complex; assay: SPR, scFv captured, pMHC in flow;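 also: complex injected at several concentrations over crude scFv, association then running-buffer dissociation, KD estimated from kinetic on- and off-rate constants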
Description: as §1

Binder | Kd [1] | koff [1] | kon [1] | Affinity increase [2] | Affinity increase [3] | Kd [4]
B1 | 5.4 nM | 0.0015 s⁻¹ | 270000 M⁻¹ s⁻¹ | 41.7 fold | – | –
B2 | 1.1 nM | 0.00025 s⁻¹ | 240000 M⁻¹ s⁻¹ | 212 fold | – | –
B3 | 2.8 nM | 0.0005 s⁻¹ | 180000 M⁻¹ s⁻¹ | 81.5 fold | – | –
B4 | 6.2 nM | 0.0019 s⁻¹ | 310000 M⁻¹ s⁻¹ | 36.4 fold | – | –
B5 | 11 nM | 0.0019 s⁻¹ | 180000 M⁻¹ s⁻¹ | 20.8 fold | – | –
B6 | 2 nM | 0.00054 s⁻¹ | 270000 M⁻¹ s⁻¹ | 110 fold | – | –
B7 | 1.8 nM | 0.00053 s⁻¹ | 290000 M⁻¹ s⁻¹ | 124 fold | – | –
B8 | 1.8 nM | 0.00044 s⁻¹ | 240000 M⁻¹ s⁻¹ | 122 fold | – | –
B9 | 11 nM | 0.0013 s⁻¹ | 120000 M⁻¹ s⁻¹ | 21 fold | – | –
B10 | 1.6 nM | 0.00038 s⁻¹ | 240000 M⁻¹ s⁻¹ | 142 fold | – | –
B11 | 3.5 nM | 0.00079 s⁻¹ | 230000 M⁻¹ s⁻¹ | 64.3 fold | – | –
B12 | 5.2 nM | 0.0013 s⁻¹ | 260000 M⁻¹ s⁻¹ | 43.4 fold | – | –
B13 | – | – | – | – | 1.2 fold | 200 nM
B14 | – | – | – | – | 0.6 fold | 380 nM
B15 | 2.8 nM | 0.00053 s⁻¹ | 190000 M⁻¹ s⁻¹ | 80.4 fold | – | –
B16 | 1.2 nM | 0.00028 s⁻¹ | 230000 M⁻¹ s⁻¹ | 183 fold | – | –
B17 | 2.5 nM | 0.00063 s⁻¹ | 250000 M⁻¹ s⁻¹ | 90.7 fold | – | –
B18 | 4.3 nM | 0.00082 s⁻¹ | 190000 M⁻¹ s⁻¹ | 52.6 fold | – | –
B19 | 10 nM | 0.0019 s⁻¹ | 190000 M⁻¹ s⁻¹ | 22.3 fold | – | –
B20 | 13 nM | 0.0028 s⁻¹ | 210000 M⁻¹ s⁻¹ | 17.6 fold | – | –

Binder | Kd [1] | koff [1] | kon [1] | Affinity increase [2] | Affinity increase [3] | Kd [4]
B21 | 4.2 nM | 0.001 s⁻¹ | 240000 M⁻¹ s⁻¹ | 54.1 fold | – | –
B22 | 8.3 nM | 0.0014 s⁻¹ | 160000 M⁻¹ s⁻¹ | 27 fold | – | –
B23 | 1.5 nM | 0.0004 s⁻¹ | 260000 M⁻¹ s⁻¹ | 146 fold | – | –
B24 | 6.8 nM | 0.00086 s⁻¹ | 130000 M⁻¹ s⁻¹ | 33 fold | – | –
B25 | 3.4 nM | 0.00068 s⁻¹ | 200000 M⁻¹ s⁻¹ | 66.2 fold | – | –
B26 | 4.9 nM | 0.0012 s⁻¹ | 250000 M⁻¹ s⁻¹ | 45.9 fold | – | –
B27 | 4.1 nM | 0.001 s⁻¹ | 250000 M⁻¹ s⁻¹ | 54.5 fold | – | –
B28 | 1.8 nM | 0.00041 s⁻¹ | 230000 M⁻¹ s⁻¹ | 128 fold | – | –
B29 | 4 nM | 0.00074 s⁻¹ | 190000 M⁻¹ s⁻¹ | 56.3 fold | – | –
B30 | 4 nM | 0.00065 s⁻¹ | 160000 M⁻¹ s⁻¹ | 56.3 fold | – | –
B31 | 5.8 nM | 0.0012 s⁻¹ | 210000 M⁻¹ s⁻¹ | 38.7 fold | – | –
B32 | 5.8 nM | 0.0015 s⁻¹ | 260000 M⁻¹ s⁻¹ | 39.1 fold | – | –
B33 | 1.5 nM | 0.00038 s⁻¹ | 260000 M⁻¹ s⁻¹ | 152 fold | – | –
B34 | 3.3 nM | 0.00055 s⁻¹ | 160000 M⁻¹ s⁻¹ | 67.4 fold | – | –
B35 | 3.8 nM | 0.00077 s⁻¹ | 200000 M⁻¹ s⁻¹ | 58.7 fold | – | –
B36 | 5.1 nM | 0.0014 s⁻¹ | 280000 M⁻¹ s⁻¹ | 44.4 fold | – | –
B37 | 3.6 nM | 0.00093 s⁻¹ | 260000 M⁻¹ s⁻¹ | 62 fold | – | –
B38 | 3.3 nM | 0.00076 s⁻¹ | 230000 M⁻¹ s⁻¹ | 67.6 fold | – | –
B39 | – | – | – | – | 1.1 fold | 220 nM
B40 | 8.5 nM | 0.0014 s⁻¹ | 160000 M⁻¹ s⁻¹ | 26.4 fold | – | –
